Values belong to the binder of their own block, whether it stands above or below them.
Legend:
[1] = biological target: T1, FLAG-tagged ZNF224 (ZNF224-FLAG), pCAGGSc-ZNF224-FLAG (human, UniProt Q9NZL3 1-707); assay: co-IP with anti-HA antibody from co-transfected Cos7 cells
T1 construct: Whole open reading frame of ZNF224 in frame with a C-terminal FLAG-tag, expressed in UM-UC-3 or COS7 cells; also called exogenous ZNF224; not shown: C-terminal FLAG-tag from the pCAGGScFLAG vector
Protocol: (§1) To confirm the interaction between DEPDC1 and ZNF224 in bladder cancer cells and identify the ZNF224-binding region in DEPDC1, the immunoprecipitation experiment was carried out as follows. First, it was confirmed interaction between endogenous DEPDC1 and exogenous ZNF224 by immunoprecipitation experiments using anti-DEPDC1 polyclonal antibody for immunoprecipitation and anti-FLAGM2 antibody (Amersham) for immunoblotting. To further determine the ZNF224-binding region in DEPDC1, it was cloned six partial constructs of DEPDC1 (DEPDC1₁₋₁₄₇, DEPDC1₁₄₁₋₃₀₀, DEPDC1₁₇₇₋₅₉₇, DEPDC1₃₀₀₋₆₆₉, DEPDC1₅₈₇₋₇₄₀ and DEPDC1₆₅₄₋₈₁₁) into appropriate sites of COOH-terminal HA-tagged pCAGGS vector. The nucleotide sequence of each clones were determined with an ABI Prism 3700 DNA sequencer (Applied Biosystems, Foster City, Calif.), using each primer. Cell extracts from Cos7 cell line, transfected with each of plasmids expressing one of these six partial segments of DEPDC1, were precleared by incubation at 4 degrees C. for 1 hour with 100 micro 1 of protein G-agarose beads in final volumes of 2 mL of immunoprecipitation buffer (0.5% NP40, 50 mmol/L Tris-HCl, 150 mmol/L NaCl) in the presence of proteinase inhibitor. After centrifugation at 1,000 rpm for 5 minutes at 4 degrees C., the supernatants were incubated at 4 degrees C. with anti-HA rat for 1 hours. […]

[2] = biological target: T1, FLAG-tagged ZNF224 (ZNF224-FLAG), …; assay: co-IP with anti-HA rat antibody from co-transfected Cos7 cells
Protocol: as §1

T1 sequence (Q9NZL3 whole entry M118V/H562R): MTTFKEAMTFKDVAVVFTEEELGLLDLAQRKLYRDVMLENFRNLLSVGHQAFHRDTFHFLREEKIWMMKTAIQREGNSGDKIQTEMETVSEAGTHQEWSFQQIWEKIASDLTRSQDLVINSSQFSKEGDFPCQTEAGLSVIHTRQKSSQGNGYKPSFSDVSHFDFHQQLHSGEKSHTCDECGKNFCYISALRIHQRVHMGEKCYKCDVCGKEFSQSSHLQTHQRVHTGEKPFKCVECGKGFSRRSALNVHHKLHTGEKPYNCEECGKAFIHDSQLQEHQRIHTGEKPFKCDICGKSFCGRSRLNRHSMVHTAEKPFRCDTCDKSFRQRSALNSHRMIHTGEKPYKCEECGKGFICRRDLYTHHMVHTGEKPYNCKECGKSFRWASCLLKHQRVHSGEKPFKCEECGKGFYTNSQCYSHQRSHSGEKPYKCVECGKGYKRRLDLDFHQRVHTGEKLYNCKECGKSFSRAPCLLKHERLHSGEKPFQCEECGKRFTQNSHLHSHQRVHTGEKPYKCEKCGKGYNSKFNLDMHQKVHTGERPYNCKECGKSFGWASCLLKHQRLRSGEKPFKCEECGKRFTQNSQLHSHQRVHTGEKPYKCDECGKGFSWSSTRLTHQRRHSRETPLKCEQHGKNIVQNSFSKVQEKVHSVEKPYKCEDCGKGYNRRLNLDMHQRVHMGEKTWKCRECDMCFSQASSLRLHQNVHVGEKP

binding result [1]: no binding
B1: DEPDC1 1-147, COOH-terminal HA-tagged partial construct (other)
chain: MESQGVPPGPYRATKLWNEVTTSFRAGMPLRKHRQHFKKYGNCFTAGEAVDWLYDLLRNNSNFGPEVTRQQTIQLLRKFLKNHVIEDIKGRWGSENVDDNNQLFRFPATSPLKTLPRRYPELRKNNIENFSKDKDSIFKLRNLSRRT
notes: not shown: C-terminal HA-tag from pCAGGScHA vector

binding result [1]: no binding
B2: DEPDC1 177-597, COOH-terminal HA-tagged partial construct (other)
chain: DNRELSQEDVEEVWRYVILIYLQTILGVPSLEEVINPKQVIPQYIMYNMANTSKRGVVILQNKSDDLPHWVLSAMKCLANWPRSNDMNNPTYVGFERDVFRTIADYFLDLPEPLLTFEYYELFVNILVVCGYITVSDRSSGIHKIQDDPQSSKFLHLNNLNSFKSTECLLLSLLHREKNKEESDSTERLQISNPGFQERCAKKMQLVNLRNRRVSANDIMGGSCHNLIGLSNMHDLSSNSKPRCCSLEGIVDVPGNSSKEASSVFHQSFPNIEGQNNKLFLESKPKQEFLLNLHSEENIQKPFSAGFKRTSTLTVQDQEELCNGKCKSKQLCRSQSLLLRSSTRRNSYINTPVAEIIMKPNVGQGSTSVQTAMESELGESSATINKRLCKSTIELSENSLLPASSMLTGTQSLLQPHLERV
notes: as for B1

binding result [2]: binds
B3: DEPDC1 587-740, COOH-terminal HA-tagged partial construct (other)
chain: QSLLQPHLERVAIDALQLCCLLLPPPNRRKLQLLMRMISRMSQNVDMPKLHDAMGTRSLMIHTFSRCVLCCAEEVDLDELLAGRLVSFLMDHHQEILQVPSYLQTAVEKHLDYLKKGHIENPGDGLFAPLPTYSYCKQISAQEFDEQKVSTSQA
notes: The forward primer carries an added ACCATG, so an extra start Met may precede residue 587; not shown: C-terminal HA-tag from pCAGGScHA vector

binding result [2]: binds
B4: DEPDC1 300-669, COOH-terminal HA-tagged partial construct (other)
chain: VNILVVCGYITVSDRSSGIHKIQDDPQSSKFLHLNNLNSFKSTECLLLSLLHREKNKEESDSTERLQISNPGFQERCAKKMQLVNLRNRRVSANDIMGGSCHNLIGLSNMHDLSSNSKPRCCSLEGIVDVPGNSSKEASSVFHQSFPNIEGQNNKLFLESKPKQEFLLNLHSEENIQKPFSAGFKRTSTLTVQDQEELCNGKCKSKQLCRSQSLLLRSSTRRNSYINTPVAEIIMKPNVGQGSTSVQTAMESELGESSATINKRLCKSTIELSENSLLPASSMLTGTQSLLQPHLERVAIDALQLCCLLLPPPNRRKLQLLMRMISRMSQNVDMPKLHDAMGTRSLMIHTFSRCVLCCAEEVDLDELLAG
notes: The forward primer carries an added ACCATG, so an extra start Met may precede residue 300; not shown: C-terminal HA-tag from pCAGGScHA vector

Source: patent US20110237518A1 (ONCOTHERAPY SCIENCE, published 2011)
